Experimental data taken from patent publication US20090269346A1 (RAPTOR PHARMACEUTICAL, published 2009).
Residue numbers refer to the chain shown, from its start.

Key:
[1] = biological target: T1, LRP1 CR3-5 (human); experiment: solid-phase assay, coated CR protein, anti-RAP, OD450; apparent Kd repeated from Table 1; unit inferred, nM taken from paragraph 284
T1 construct: range 852-973; Amplified from human cDNA; also called L1 CR3-5

[2] = biological target: T2, LRP2 CR2728 (UniProt P98164 3552-3631); experiment: solid-phase binding assay, ligand at 80 nM on coated CR proteins, blank-corrected absorbance
T2 construct: domain: CR27 and CR28; its making is not described
T2 sequence (looked up): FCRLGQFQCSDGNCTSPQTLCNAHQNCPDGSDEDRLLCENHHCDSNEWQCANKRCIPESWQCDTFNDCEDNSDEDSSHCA
Description: (§1) Solid phase binding assays-Purified, refolded CR protein (1 μg) was bound to Nunc Maxisorp™ 96-well plates in TBS pH 8 supplemented with 5 mM CaCl₂ (TBSC) overnight at 4° C. Wells were washed with TBSC and then blocked with TBSC containing 2% bovine serum albumin (BSA). RAP ligands were then incubated with the immobilized receptor at a range of concentrations for 2 hours in the above blocking buffer supplemented with 0.05% Tween-20 at room temperature. Control wells contained no added ligand. As an additional control, to determine whether the absence of calcium affected binding, 10 mM EGTA was included in the incubation medium for some samples. Wells were washed with TBSTC and bound ligands detected with polyclonal anti-RAP (BP41/42, 1:1,000, BioMarin). Excess primary antibody was removed and wells washed before incubation with the secondary antibody, HRP-conjugated goat anti rabbit IgG (Bio-Rad). After washing, TMB substrate solutions (Bio-Rad) were added to detect HRP. Color development was stopped with 1N HCl. Absorption at 450 nm was measured with a microplate spectrophotometer (Molecular Devices). Data were plotted and Kd values derived by non-linear regression with the assumption of single-site binding (GraphPad Prism).
(§2) Binding experiments were also carried out comparing the binding of RAP d3 and RAPv2A d3 to an array of CR pairs (FIG. 9), similar to the experiment depicted in FIG. 5. For these experiments, RAP d3 and RAPv2A d3 (or RAPv2 d3) were each incubated at 80 nM concentrations with LRP1 CR3-5, LRP6 CR12, LRP6 CR23, LRP6 CR1-3, LRP2 CR89, LRP2 CR2728, LRP2 CR3031, LRP2 CR3435, LRP2 CR34-36, VLDLR CR78, VLDLR CR6-8, MAT CR12, MAT CR23 and MAT CR34. Samples were tested twice, in duplicate, and values combined. Means and standard deviations were then calculated. Blank values obtained from wells incubated in the absence of ligand were used to correct absorbance data.

[3] = biological target: T3, ST14 CR12 (human, UniProt Q9Y5Y6 452-524); experiment: as above
T3 construct: also called MAT CR12; Mat CR12
T3 sequence: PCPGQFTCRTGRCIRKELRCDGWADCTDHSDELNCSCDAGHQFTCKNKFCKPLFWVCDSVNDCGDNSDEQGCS
Description: as §1, §2

[4] = biological target: T4, LRP2 CR3031 (UniProt P98164 3677-3755); experiment: as above
T4 construct: domain: CR30 and CR31; its making is not described
T4 sequence (P98164 3677-3755): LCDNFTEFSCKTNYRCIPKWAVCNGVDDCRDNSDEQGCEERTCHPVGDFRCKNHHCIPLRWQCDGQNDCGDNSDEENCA
Description: as §1, §2

[5] = biological target: T5, LRP2 CR89 V1047D R1088D (human, UniProt P98164 1022-1105); experiment: solid-phase binding assay: CR protein coated on the plate, ligand titrated, anti-RAP polyclonal and HRP secondary, OD 450 nm
T5 construct: also called YDWD
T5 chain: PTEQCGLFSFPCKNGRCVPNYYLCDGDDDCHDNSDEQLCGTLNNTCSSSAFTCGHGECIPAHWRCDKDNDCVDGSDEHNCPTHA
Description: as §1
(§3) One premise of this work was that amino acids at A, C, A′ and C′ within the calcium-binding loops of a CR pair were key determinants of binding affinity for RAP and would be similarly important for binding of RAP variants. To test this idea, we prepared mutants of LRP2 CR89 in which the native, non-canonical residues at these positions were sequentially substituted with the non-native, canonical residues. As defined above, the A, C, A′, C′ string for LRP2 CR89 is YVWR. Mutants included LRP2 CR89 Y1042W (WVWR), LRP2 CR89 V1047D (YDWR), LRP2 CR89 R1088D (YVWD), LRP2 CR89 V1047D R1088D (YDWD), LRP2 CR89 Y1042W V1047D R1088D (WDWD), LRP2 CR89 Y1042W V1047D (WDWR), LRP2 CR89 Y1042W R1088D (WVWD). Binding to both RAP d3 and RAPv2A d3 were measured for each LRP2 CR89 mutant by solid-phase assay. Samples were tested in triplicate. OD values from uncoated wells, receptor-coated wells incubated with buffer alone, and uncoated wells incubated with the highest ligand concentration all gave similar values for all conditions tested.

[6] = biological target: T6, LRP2 CR89 V1047D (human, UniProt P98164 1022-1105); experiment: as above
T6 construct: also called YDWR
T6 chain: T5 chain with D68R
Description: as §1, §3

[7] = biological target: T7, LRP2 CR89 R1088D (human, UniProt P98164 1022-1105); experiment: as above
T7 construct: also called YVWD
Description: as §1, §3

[8] = biological target: T8, LRP2 CR89 Y1042W (human, UniProt P98164 1022-1105); experiment: as above
T8 construct: also called WVWR
T8 chain: T5 chain with Y22W, D27V, D68R
Description: as §1, §3

T1 sequence (Q07954 852-973): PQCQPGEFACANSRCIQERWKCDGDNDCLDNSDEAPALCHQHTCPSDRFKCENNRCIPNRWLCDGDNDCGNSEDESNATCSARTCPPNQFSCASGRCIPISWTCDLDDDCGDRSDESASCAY

Kd [1]: 16 nM
binding result [2]: no binding (tested: 80 nM)
binding result [3]: no binding (tested: 80 nM)
binding result [4]: no binding (tested: 80 nM)
binding result [5]: no binding (tested: 100 nM)
binding result [6]: no binding (tested: 100 nM)
binding result [7]: no binding (tested: 100 nM)
binding result [8]: no binding (tested: 100 nM)
B1: wild-type RAP d3 (ligand)
chain: LDRLRRVSHQGYSTEAEFEEPRVIDLWDLEQSANLTDKELEAFREELKHFEAKIEKHNHYQKQLEIAHEKLRHAESVGDGERVSRSREKHALLEGRTKELGYTVKKHLQDLSGRISRAR
notes: expressed in E. coli from pET30(+)a; not shown: vector-encoded N-terminal tags of pET30(+)a (hexahistidine and S-peptide, as stated for the CR constructs)
